Series [1] has as its system sulfated CCR5 on HEK293 cells transfected with CCR5 + TPST2 (C2). Description: Flow cytometry binding to C2 cells. It is filed as cell-based. An excerpt: (§1) We prepared model cells with transient overexpression to examine whether BA8 can recognize sulfated full-length CCR5. As referred in the Introduction section, previous research has shown that protein tyrosine sulfotransferases (TPSTs) are responsible for tyrosine sulfation ([10], [11], [12]). Those two isoforms of TPST (TPST1 and TPST2) and CCR5 genes were transiently transfected in the following five combinations to HEK293 cells: Negative Control (NC); CCR5 (C); CCR5 + TPST1 (C1); CCR5 + TPST2 (C2); and CCR5 + TPST1 + TPST2 (C12). Each protein contained the following tag sequences at the C-terminus: CCR5 – FLAG, TPST1 – HA, and TPST2 – Myc. The overexpression of each protein was confirmed by western blotting using tag antibodies (Fig. 5, A and B).
(§2) We conducted flow cytometry using these cells to confirm that BA8 can recognize sulfated CCR5 expressed on the cell surface (Fig. 5D).
(§3) To quantitatively evaluate the binding ability of BA8 to C2 and C12 cells, we plotted the median fluorescence intensity of antibody binding against BA8 concentration (Fig. 5E). An increase in the signal with increasing antibody concentration was confirmed, and the binding activity was quantitatively evaluated by fitting with a sigmoid function.
(§4) HEK293 cells stored in liquid nitrogen were initiated into the culture by thawing. […]
In general terms: In flow cytometry, cells or beads pass a laser one at a time.

Series [2] in a line: DSF thermal stability of BA8 Fab and mutants. It is filed as physicochemical. How it is done: To assess the effect of sulfated peptide binding on the thermal stability of BA8, we performed differential scanning fluorimetry (DSF) measurements (Fig. 2C) ([25]). The melting temperature (Tm) of BA8 forming a complex with the sulfated peptide was 75.6 °C, whereas the pre-binding Tm was 70.8 °C.
We evaluated the stabilizing effect of peptide binding on each mutant using DSF (Fig. S6).
The DSF thermal stability measurements were performed using a CFX Real-Time PCR System (Bio-Rad). First, 1 μl of 100 × SYPRO Orange stain was diluted with 19 μl of 8.3 μM unbound-BA8 Fab or the solution remaining in the cell after ITC measurement. Next, fluorescence was scanned every minute to obtain melting curves of the solutions as they were heated at 1.0 °C/min. The change in the scanned relative fluorescence unit per unit time was recorded, and the temperature at its peak was considered to be the melting temperature (Tm) ([42]).

For series [3], the system named is sulfated N-terminal peptide of CCR5. Description: SPR kinetic interaction analysis of BA8 Fab (wild type and mutants) with the sulfated peptide. It is filed as binding. As to conditions: SPR Biacore 8K, PBS 0.005% Tween 20, global fitting. The text has this:
To quantitatively evaluate the intermolecular interaction between BA8 and the sulfated N-terminal peptide of CCR5, we prepared a Fab fragment of BA8 as a recombinant protein (Fig. S2, A and B) and conducted kinetic interaction analysis using SPR. The Fab was immobilized on a sensor chip using amine coupling, and the synthesized sulfated and non-sulfated N-terminal peptides of CCR5 were used as the analytes.
To further dissect how molecular recognition occurs, we evaluated the contribution of individual residues of BA8 to the recognition of the sulfated peptide. We analyzed the crystal structure using the PDB PISA server, and we conducted mutation analyses in which the residues predicted to form hydrogen bonds or located at the interface were mutated to alanine (Fig. 3B).
The bindings of the peptides to Fabs were analyzed using a Biacore 8K instrument (Cytiva). Each Fab was immobilized on the surface of a CM5 sensor chip (Cytiva) by the amine-coupling method according to the manufacturer’s instructions in the condition of pH 5.5. The immobilization level reached to about 3000 Response Unit (RU). PBS containing 0.005% Tween 20 was used as the running buffer. The kinetic data were obtained by injection of increasing concentrations of peptides into the sensor chip. The flow rate of the analyte were set to 30 μl/min. The data were analyzed using BIAevaluation software (Cytiva), and the binding affinity as well as kinetic parameters were calculated by a global fitting of the curves.
Background: SPR reads the build-up and loss of mass on a sensor chip optically.

The test system of series [4] is sulfated CCR5 on HEK293 cells transfected with CCR5 + TPST1 + TPST2 (C12). Description: Flow cytometry binding to C12 cells. It is filed as cell-based. The following applies: BA8 full-length IgG, median fluorescence intensity vs concentration, sigmoid fit, read-out: half-maximal binding concentration (BC50).
From the text: as §1, §2, §3, §4

For series [5], the system named is YU2 (CCR5 tropic strain) strain in TZM-bl cells. Description: Pseudoviral assay (single-round viral infective assay) in TZM-bl cells. It is filed as cell-based, HIV. The following applies: 48 h post-infection, luciferase read-out, BA8 up to 50 μg/ml (approximately 350 nM).
Method: Subsequently, we conducted a pseudoviral test using TZM-bl cells.
The anti-HIV activity of BA8, isotype control antibody, and Maraviroc (Sigma-Aldrich) in a single-round viral infective assay against the YU2 (CCR5 tropic strain) strain in TZM-bl cells. At 48 h post-infection, cells were lysed, and relative light units were measured using a Steady-Glo luciferase assay system and GloMax Discover microplate reader (Promega).
Series [6] concerns endogenous CCR5 expressed on TZM-bl. In words: Flow cytometry binding to TZM-bl cells. It is filed as cell-based. The following applies: BA8 full-length IgG, read-out: BC50 (the source's name).
Method: Cells were aliquoted into 96 Well Conical (V) Bottom Plates (ThermoFisher Scientific) at 50,000 cells per sample and fixed with 2% paraformaldehyde at 4 °C for 30 min. After a PBS wash, 50 μl of goat anti-rabbit IgG Alexa 488 (Invitrogen) diluted 1000-fold by PBS were added to the sample. After incubation at 4 °C for 30 min, PBS washed cells were diluted with PBS containing 2% fetal bovine serum, and flow cytometry was performed using a FACS Canto system (BD Biosciences).
[7] abbreviates: Fab immobilized on CM5 chip, sulfated peptide as analyte.

Data on 1 molecule can be found in PMC11849073, “Specific recognition mechanism of an antibody to sulfated tyrosine and its potential use in biological research” (The Journal of Biological Chemistry, 2025).

Values joined by “and” are separate entries in the source; they are usually repeats but may differ in a detail not shown here. Equal values may be shown once. “Also recorded” adds a separate entry of the source. Read-outs that look alike come from different tables or passages of the source.

B1: BA8: rabbit antibody clone from phage display that specifically recognizes the sulfated N-terminal peptide of CCR5 (antibody, V domains shown)
VH: QSLEESGGGLFKPTDTLTLTCTVSGFSLSSYSIRWVRQAPGNGLEWIGAIGSGGNAYYTSWAKSRSTITRNTNENTVTLKMTSLTVADTATYFCARGGINFGIWGPGTLVTVSS
VL: AAVLTQTPSPVSAAVGSTVTINCQSSQSVYSKNWLSWFQQKPGQPPKQLIYSASTLDSGVPSRFSGSGSGTQFTLTISGVQCDDAATYYCQGTYGDASAFGGGTEVVVK
As for B1, the EC50 in series [1] (C2 cells, BA8 full-length IgG, median fluorescence intensity vs concentration, sigmoid fit, read-out: half-maximal binding concentration (BC50)) was 3.64 nM; in series [1] (HEK293 overexpression system, C2 or C12 not specified, read-out: BC50 in overexpression system using HEK293 cells (approximate, discussion)), ~3 nM; in series [4], 3.71 nM; in series [6], 49 nM and ~50 nM. Moreover, the “melting temperature (Tm), unbound (pre-binding)” value in series [2] (SYPRO Orange, 8.3 μM unbound Fab, heated at 1.0 °C/min) worked out at 70.8 °C. In addition, in series [2] (SYPRO Orange, solution remaining in the cell after ITC measurement, 1.0 °C/min), the “melting temperature (Tm) of BA8 forming a complex with the sulfated peptide” value stood at 75.6 °C. In addition, in series [2] (complex from the ITC measurement), the “increase of Tm after forming a complex with the sulfated peptide versus BA8 alone” value came to 4.8 °C. Further, in series [3] (Fab immobilized on CM5 chip by amine coupling (~3000 RU), sulfated peptide as analyte (2 to 162 nM; 20 nM to 1620 nM for the weak mutants of Fig. 3), 30 μl/min), the kon came to 251000 mol/L/s. The molecule further displayed a dissociation constant (Kd) in series [3] (setting [7]) of 0.809 nM. Besides, in series [3] (setting [7]), the koff was determined as 0.000203 s⁻¹. Further, the “inhibition of HIV infection, in words” value in series [5] is on record as “did not significantly inhibit the infection; also recorded: did not show inhibitory activity”.

Broadly, the Kd is the concentration at which binding is half-saturated. Higher therefore signals weaker binding. The term koff denotes the rate constant with which the complex falls apart. Low readings indicate slow dissociation, high ones fast dissociation.
